The record followed here is patent US20200247894A1 (Regeneron, published 2020).

Test [1] deals with T1, Human IL2Rγ extracellular domain expressed with a C-terminal mouse IgG2a Fc tag (human).
T1 construct: whole entry is the Fc-fused construct; also called hIL-2Rg-mFc
T1 chain: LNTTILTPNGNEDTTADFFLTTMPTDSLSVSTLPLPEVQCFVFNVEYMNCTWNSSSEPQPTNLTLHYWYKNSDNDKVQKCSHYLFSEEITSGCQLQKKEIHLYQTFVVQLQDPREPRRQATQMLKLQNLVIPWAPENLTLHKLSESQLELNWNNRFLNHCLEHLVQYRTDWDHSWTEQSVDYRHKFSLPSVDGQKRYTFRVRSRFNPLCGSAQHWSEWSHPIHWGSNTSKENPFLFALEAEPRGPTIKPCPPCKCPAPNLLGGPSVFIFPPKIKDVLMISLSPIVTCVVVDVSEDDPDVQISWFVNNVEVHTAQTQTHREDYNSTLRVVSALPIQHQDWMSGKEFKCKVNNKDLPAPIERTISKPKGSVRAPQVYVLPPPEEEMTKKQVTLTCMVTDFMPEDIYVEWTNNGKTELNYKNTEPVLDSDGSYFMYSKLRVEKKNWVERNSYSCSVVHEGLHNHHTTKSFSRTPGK
The test is described as follows: SPR Biacore 4000, anti-hFc-captured mAb, 25 C. In outline:
(§1)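 HBS-ET running buffer (10 mM HEPES, 150 mM NaCl, 3 mM EDTA, 0.05% Tween-20, pH 7.4). mAb capture via anti-human Fc. Dissociation monitored 8-10 min. 1:1 kinetic fit; KD, t1/2 derived from ka/kd.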

The target of test [2] is T2, Rat IL2Rγ extracellular domain expressed with a C-terminal myc-myc-hexahistidine tag (rat).
T2 construct: whole entry is the tagged construct; also called rIL-2Rg-MMH; rat IL-2Rg-MMH
T2 chain: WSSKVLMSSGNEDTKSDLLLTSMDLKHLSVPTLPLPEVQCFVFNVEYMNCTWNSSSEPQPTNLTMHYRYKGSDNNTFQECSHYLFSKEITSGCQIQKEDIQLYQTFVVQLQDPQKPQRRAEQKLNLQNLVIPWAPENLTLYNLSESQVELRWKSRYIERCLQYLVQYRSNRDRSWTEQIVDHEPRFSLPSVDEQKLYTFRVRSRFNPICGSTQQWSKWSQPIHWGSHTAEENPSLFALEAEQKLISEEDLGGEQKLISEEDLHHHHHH
The test is described as follows: SPR Biacore 4000, anti-hFc-captured mAb, 25 C. In outline:
as §1
(SPR reads the build-up and loss of mass on a sensor chip optically.)

In test [3] the target is T3, Mouse IL2Rγ extracellular domain expressed with a C-terminal myc-myc-hexahistidine tag (mouse).
T3 construct: whole entry is the tagged construct; also called mIL-2Rg-MMH
T3 chain: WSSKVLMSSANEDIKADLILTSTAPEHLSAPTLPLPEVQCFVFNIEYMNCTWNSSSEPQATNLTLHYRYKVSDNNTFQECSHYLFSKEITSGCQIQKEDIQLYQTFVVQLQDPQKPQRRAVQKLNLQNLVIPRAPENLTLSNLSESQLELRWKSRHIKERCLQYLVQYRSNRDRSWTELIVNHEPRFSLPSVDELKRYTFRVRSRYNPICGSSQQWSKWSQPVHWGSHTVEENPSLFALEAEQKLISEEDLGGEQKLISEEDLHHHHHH
Description: SPR Biacore 4000, anti-hFc-captured mAb, 25 C. In outline:
as §1

Test [4] addresses T1, Human IL2Rγ extracellular domain …. Description: SPR Biacore 4000, anti-hFc-captured mAb, 37 C. In a few lines:
as §1

Test [5] deals with T2, Rat IL2Rγ extracellular domain …. Description: SPR Biacore 4000, anti-hFc-captured mAb, 37 C. In a few lines: as §1
Test [6] has as its target T4, Macaca fascicularis IL2Rγ extracellular domain expressed with a C-terminal myc-myc-hexahistidine tag (Macaca fascicularis).
T4 construct: whole entry is the tagged construct; also called mfIL-2Rg-MMH
T4 chain: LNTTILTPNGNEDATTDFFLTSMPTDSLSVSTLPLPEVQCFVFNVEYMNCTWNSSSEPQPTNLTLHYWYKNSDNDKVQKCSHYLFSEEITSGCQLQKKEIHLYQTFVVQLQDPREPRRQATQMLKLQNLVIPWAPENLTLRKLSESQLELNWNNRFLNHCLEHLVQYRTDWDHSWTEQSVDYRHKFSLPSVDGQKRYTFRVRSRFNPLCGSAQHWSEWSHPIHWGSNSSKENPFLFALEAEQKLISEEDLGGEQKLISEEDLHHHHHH
The test is described as follows: SPR Biacore 4000, anti-hFc-captured mAb, 37 C. In a few lines:
as §1

Test [7] concerns the target T3, Mouse IL2Rγ extracellular domain …. Description: SPR Biacore 4000, anti-hFc-captured mAb, 37 C. In outline:
as §1

In test [8] the target is T5, mouse IL-2Rγ endogenously expressed on MC/9 cells (mouse, UniProt P34902 23-369).
T5 construct: whole, on cells
T5 sequence (looked up): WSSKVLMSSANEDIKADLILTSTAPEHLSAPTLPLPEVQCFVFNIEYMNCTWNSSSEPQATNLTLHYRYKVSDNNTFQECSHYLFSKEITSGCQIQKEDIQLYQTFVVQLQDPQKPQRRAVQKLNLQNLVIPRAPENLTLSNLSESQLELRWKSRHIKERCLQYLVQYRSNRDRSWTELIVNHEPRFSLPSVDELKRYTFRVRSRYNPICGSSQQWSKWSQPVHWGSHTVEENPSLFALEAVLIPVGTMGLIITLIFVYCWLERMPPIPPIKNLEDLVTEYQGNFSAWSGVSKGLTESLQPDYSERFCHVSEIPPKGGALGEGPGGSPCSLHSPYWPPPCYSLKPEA
Description: flow cytometry, 10 ug/ml antibody, MC/9 cells (endogenous mouse IL-2Rg). The protocol:
(§2) For flow cytometry analyses, the cells were pre-incubated with mouse IgG at 100 μg/ml for 15 minutes at room temperature (RT) to block the binding of the antibodies to Fc receptors. […] Cells were washed, fixed using BD CytoFix™ (BD biosciences, #554655) and analyzed on an IQue® (Intellicyt®) Flow Cytometer or Accuri Flow cytometer (BD). […] The results were analyzed using ForeCyt® (IntelliCyt®) software to determine the geometric means of fluorescence (MFI) for viable cells. Binding ratios were calculated by normalizing the MFI of the test sample by the MFI of the unstained sample.
(In flow cytometry, cells or beads pass a laser one at a time.)

The target of test [9] is T6, human IL-2Rγ endogenously expressed on NK-92 and Jurkat cells (human, UniProt P31785 23-369).
T6 construct: whole, on cells; on cells it stands with the other receptor subunits of the cell line; also called IL-2Rg; CD132
T6 sequence (looked up): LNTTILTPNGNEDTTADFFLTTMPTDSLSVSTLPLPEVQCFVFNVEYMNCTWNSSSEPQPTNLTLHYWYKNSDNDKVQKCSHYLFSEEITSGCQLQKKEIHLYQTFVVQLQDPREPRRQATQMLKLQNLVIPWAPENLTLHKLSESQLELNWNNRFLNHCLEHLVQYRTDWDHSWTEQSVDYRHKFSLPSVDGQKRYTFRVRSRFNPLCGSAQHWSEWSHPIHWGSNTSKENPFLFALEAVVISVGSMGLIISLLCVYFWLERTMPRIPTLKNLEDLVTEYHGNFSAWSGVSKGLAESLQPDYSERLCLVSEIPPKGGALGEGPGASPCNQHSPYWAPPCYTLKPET
Description: flow cytometry, 10 ug/ml antibody, NK-92 cells (endogenous human IL-2Rg). The protocol: as §2

Test [10] has as its target T6, human IL-2Rγ endogenously expressed on …. Description: flow cytometry, 10 ug/ml antibody, Jurkat cells (endogenous human IL-2Rg). The protocol: as §2

B1: H4H13545P2 (antibody, human IgG4 S228P, kappa, V domains shown)
VH: QVQLQQSGPGLVKPSQTLSLTCDISGDSVSSNIATWNWIRQSPSRGLEWLGRTYYRSKWYKDYAVSVKSRITINPDTSKNQFSLQVNSVTPEDTAVYYCARMTGPRYYFEYWGQGTLVTVSS
VL: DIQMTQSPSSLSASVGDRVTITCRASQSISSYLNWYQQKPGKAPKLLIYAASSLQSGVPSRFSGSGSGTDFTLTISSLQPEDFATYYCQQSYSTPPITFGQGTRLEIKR
notes: fully human anti-IL2Rgamma mAb, human IgG4 Fc
The Kd is the equilibrium constant for the complex coming apart. A lower Kd goes with tighter binding. The koff is a measure of how fast the partners let go of each other. High values mean fast dissociation, low ones slow dissociation. For orientation: kon means a measure of how fast the partners come together. Low readings indicate slower complex formation, high ones faster complex formation. For the molecule B1, in test [1], the “50 nM Ag Bound” value amounted to 64 RU, binding was characterised by a dissociation constant (Kd) of 12 nM, the koff is 0.00211 s⁻¹ and the kon is 175000 M⁻¹ s⁻¹. Besides, the t1/2 in [1] is 5 min. In [2], the “100 nM Ag Bound” value was 4 RU and the binding result was “no binding (tested: 100 nM)”. In test [3], the “100 nM Ag Bound” value was 4 RU and the binding result is on record as “no binding (tested: 100 nM)”. Further, in [4], the “50 nM Ag Bound” value was 59 RU, the Kd was 30 nM, the koff was 0.00737 s⁻¹ and the kon is 246000 M⁻¹ s⁻¹. This molecule also returned a t1/2 in [4] of 1.6 min. For the same molecule, in test [5], the “100 nM Ag Bound” value was found to be 3 RU. In [6], the “100 nM Ag Bound” value was 21 RU, binding was characterised by a dissociation constant (Kd) of 88.6 nM, the koff was 0.0129 s⁻¹ and the kon came to 146000 M⁻¹ s⁻¹. The t1/2 in [6] was determined as 0.9 min. The “100 nM Ag Bound” value in test [7] amounted to 2 RU.

B2: H4H12871P (antibody, human IgG4 S228P, kappa, V domains shown)
VH: QVQLQESGPGLVKPSQTLSLTCTVSGGSITSGGYYWSWIRQYPGQGLEWIGYIYYSGKTYYNPSFTSRITISVDTSKKQFSLKMSSVTAADTAVYYCARAGFTSSNGWFDPWGQGTLVTVSS
VL: DIQMTQSPSSLSASVGDRVTITCRASQNIRSYLNWYQQKPGKAPKLLIYSASSLQSGVPSRFSGSGSGTDFTLTISSLQPEDFPTYYCQQTYSSPWTFGPGTKVEIKR
notes: fully human anti-IL2Rg antibody, human IgG4; also called REGN9434
With B2, the figures for the “Binding Ratio (Sample over unstained MFIs)” value (from here on “Binding Ratio”) in test [8], in test [9] and in test [10] were 1, 92 and 18, respectively. Further, the “Raw MFI” value in test [8] turned out to be 184 MFI; in test [9], 13700 MFI; in test [10] it was 1620 MFI.

B3: H4H12859P (antibody, human IgG4 S228P, kappa, V domains shown)
VH: QVQLVQSGAEVKKPGASVRVSCKASGYTFTDYDIHWVRQAPGHGLEWMGWINPNSGGTNYAQKFQGRVTMTRDTSISTVYMDLSRLRSDDTAVYYCARADYSSSYYYYGMDVWGQGTTVTVSS
VL: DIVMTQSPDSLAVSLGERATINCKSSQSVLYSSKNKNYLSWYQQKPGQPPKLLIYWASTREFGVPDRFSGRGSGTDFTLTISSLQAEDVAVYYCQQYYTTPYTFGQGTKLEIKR
notes: fully human anti-IL2Rg antibody, human IgG4
For the molecule B3, the “Binding Ratio” value in test [8], in test [9] and in test [10] was 1 each time. Moreover, the “Raw MFI” value in [8] is 201 MFI; in test [9] it was 176 MFI; in test [10], 89 MFI.

B4: H4H12858P (antibody, human IgG4 S228P, kappa, V domains shown)
VH: EVQLVESGGDLVQPGGSLRLSCTASGFIFRNYAMNWVRQAPGKGLEWLSGILGSNDNTYYVDSVKGRFTISRDNSRNTLYLQMNSLRAEDSAVYYCAKGDAGGFDYWGQGTLVTVSS
VL: DVVMTQSPLSLPVILGQPASISCRSSQSLVSSDGNTYLNWFQQRPGQSPRRLIYKVSNRDSGVPDRFSGSGSGTDFTLKISRVEAEDVGAYYCMQGSYWPPTFGQGTKLEIKR
notes: fully human anti-IL2Rg antibody, human IgG4; also called REGN9433
With B4, the “Binding Ratio” value in test [8] is 1; in test [9], 2; in [10], 1. The figures for the “Raw MFI” value in [8], in test [9] and in [10] were 199 MFI, 228 MFI and 99 MFI, respectively.

B5: H4H12863P (antibody, human IgG4 S228P, kappa, V domains shown)
VH: QVQLVESGGGVVQPGRSLRLSCTASGFTFRSYDMYWVRQAPGKGLEWVSVITYDGNNKYYADSVKGRFTISRDNSKNTLFLQMSSLRPEDTAVYYCAKRGLIWVGESFDYWGQGTLVTVSS
VL: DIQMTQSPSTLSASVGDRVTITCRASQSINSWLAWYQQKPGKAPNLLIYKASSLESGVPSRFSGSGSGTEFTLTISSLQPDDFATYYCQQYKSYSWTFGQGTKVEIKR
notes: as for B3
Consider B5, for which the figures for the “Binding Ratio” value in test [8], in [9] and in [10] were 1, 87 and 13, respectively. In addition, the figures for the “Raw MFI” value in test [8], in test [9] and in [10] were 185 MFI, 13000 MFI and 1170 MFI, respectively.

B6: H4H12874P (antibody, human IgG4 S228P, kappa, V domains shown)
VH: QVQLVESGGGVVQPGRSLRLSCAASGFNFRNFGMHWVRQAPGKGLEWVAGILYDGSSKYYADSVKDRFTISRDNSKNTLFLQMNSLRAEDTAMYYCAKEEDTAMVPFDSWGPGTLVTVSS
VL: DIQLTQSPSFLSASVGDRVTITCWASQGISSYLAWYQQKPGKAPTLLIYAASTLQSGVPSRFSGSGSGTEFTLTISSLQPEDFASYYCQQLKSYPLTFGGGTKVEIKR
notes: as for B3
Consider B6, for which the “Binding Ratio” value in test [8] was determined as 1; in [9] it was 44; in test [10] it was 6. Moreover, the “Raw MFI” value stood at 202 MFI in [8], 6580 MFI in test [9] and 507 MFI in test [10].
